The results in this text go back to US20140213531A1 (POLYPHOR, published 2014).

Bridges are numbered along the chain shown (N, C = ends). [ ]: non-standard residue; d: D form. AlloThr = allo threonine

Holding throughout (assay): cell-based or functional assay
Assay [1] deals with Chymotrypsin, from human pancreas (human, UniProt P17538 19-263).
Assay [2] has as its target Urokinase from human urine (human, UniProt P00749 21-431, limits assumed).
Assay [3] deals with Thrombin, from Human Plasma, high activity (human, UniProt P00734 328-622).
Assay [4] deals with T1, Elastase from human neutrophils (human, UniProt P08246 30-247, limits assumed).
T1 sequence (looked up): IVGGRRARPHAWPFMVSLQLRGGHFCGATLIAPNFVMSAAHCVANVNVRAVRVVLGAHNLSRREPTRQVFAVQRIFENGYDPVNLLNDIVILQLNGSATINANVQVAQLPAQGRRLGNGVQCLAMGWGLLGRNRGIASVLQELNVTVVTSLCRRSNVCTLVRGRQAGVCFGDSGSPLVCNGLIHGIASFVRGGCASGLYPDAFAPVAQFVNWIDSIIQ

Assay [5] deals with Tryptase, from human lung (human, UniProt Q15661 31-275, limits assumed).
Another assay deals with T2, Chymase, from human skin (human, UniProt P23946 22-247).
T2 sequence (looked up): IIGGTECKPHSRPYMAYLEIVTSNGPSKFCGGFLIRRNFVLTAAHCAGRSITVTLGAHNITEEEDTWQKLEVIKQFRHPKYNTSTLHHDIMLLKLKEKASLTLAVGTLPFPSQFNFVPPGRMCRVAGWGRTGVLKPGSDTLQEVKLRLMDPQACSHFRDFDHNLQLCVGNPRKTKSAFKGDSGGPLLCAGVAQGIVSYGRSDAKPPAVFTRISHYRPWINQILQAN

In assay [6] the target is Trypsin, Iodination grade, from human pancreas (human, UniProt P07477 24-247).
In assay [7] the target is T3, CathepsinG, from human neutrophils (human, UniProt P08311 21-244).
T3 sequence (looked up): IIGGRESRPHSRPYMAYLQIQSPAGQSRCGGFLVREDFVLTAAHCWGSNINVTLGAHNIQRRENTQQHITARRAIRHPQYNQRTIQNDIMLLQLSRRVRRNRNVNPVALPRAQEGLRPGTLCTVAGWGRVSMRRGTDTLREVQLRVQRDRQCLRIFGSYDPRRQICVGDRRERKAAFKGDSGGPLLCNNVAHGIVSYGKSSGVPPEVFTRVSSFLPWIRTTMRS

Assay [8] concerns the target Coagulation Factor Xa, from human plasma (human, UniProt P00742 41-488, limits assumed).

Chain of Chymotrypsin, from human pancreas (P17538 19-263): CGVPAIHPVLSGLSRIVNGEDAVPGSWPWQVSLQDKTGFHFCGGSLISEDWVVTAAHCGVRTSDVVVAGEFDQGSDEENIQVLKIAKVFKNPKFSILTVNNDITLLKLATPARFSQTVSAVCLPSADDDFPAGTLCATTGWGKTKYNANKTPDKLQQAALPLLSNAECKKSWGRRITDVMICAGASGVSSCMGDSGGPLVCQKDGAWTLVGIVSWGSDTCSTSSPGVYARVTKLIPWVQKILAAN
Chain of Coagulation Factor Xa, from human plasma (P00742 41-488 limits assumed): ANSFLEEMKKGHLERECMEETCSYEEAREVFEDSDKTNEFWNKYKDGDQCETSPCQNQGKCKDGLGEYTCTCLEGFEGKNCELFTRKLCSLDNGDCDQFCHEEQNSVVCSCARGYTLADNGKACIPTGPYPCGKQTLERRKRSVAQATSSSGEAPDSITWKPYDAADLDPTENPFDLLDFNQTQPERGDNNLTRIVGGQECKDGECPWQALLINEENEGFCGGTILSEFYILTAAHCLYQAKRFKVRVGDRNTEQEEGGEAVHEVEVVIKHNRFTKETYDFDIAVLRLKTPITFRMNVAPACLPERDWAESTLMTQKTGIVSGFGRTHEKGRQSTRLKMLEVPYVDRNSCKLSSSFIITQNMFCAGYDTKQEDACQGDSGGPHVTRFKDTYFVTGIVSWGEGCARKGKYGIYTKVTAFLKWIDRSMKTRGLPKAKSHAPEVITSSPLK
Chain of Tryptase, from human lung (Q15661 31-275 limits assumed): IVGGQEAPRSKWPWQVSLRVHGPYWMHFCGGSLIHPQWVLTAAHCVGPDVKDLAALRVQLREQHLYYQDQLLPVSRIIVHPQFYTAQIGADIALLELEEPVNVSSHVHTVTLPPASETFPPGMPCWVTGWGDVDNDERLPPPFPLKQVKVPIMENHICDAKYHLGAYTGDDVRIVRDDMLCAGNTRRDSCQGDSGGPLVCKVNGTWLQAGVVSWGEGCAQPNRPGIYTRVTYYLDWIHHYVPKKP

B1: Example 26 (peptide)
peptide: YCTKSDPPICY
HELM: PEPTIDE1{Y.C.T.K.S.D.P.P.I.C.Y.[dP].P}$PEPTIDE1,PEPTIDE1,2:R3-10:R3|PEPTIDE1,PEPTIDE1,1:R1-13:R2$$$V2.0
SMILES: CC[C@H](C)[C@@H]1NC(=O)[C@@H]2CCCN2C(=O)[C@@H]2CCCN2C(=O)[C@H](CC(=O)O)NC(=O)[C@H](CO)NC(=O)[C@H](CCCCN)NC(=O)[C@H]([C@@H](C)O)NC(=O)[C@@H]2CSSC[C@H](NC1=O)C(=O)N[C@@H](Cc1ccc(O)cc1)C(=O)N1CCC[C@@H]1C(=O)N1CCC[C@H]1C(=O)N[C@@H](Cc1ccc(O)cc1)C(=O)N2
A word on the % inhibition: it is the drop in the measured response relative to a control, in per cent. A low value points to a response near the control. Turning to B1, the “% inhibition at 100 µM” value turned out to be 2.2% in assay [1]; 3.1% in assay [2]; 3% in assay [3]; 66.4% in assay [5]; 0% with Chymase, from human skin; 84% in assay [6]. In addition, the “% inhibition at 100 µM” value in [8] turned out to be 6%. The values for the IC50 in assay [4] and in [7] were above 100000 nmol and 49 nmol, respectively.

B2: Example 31 (peptide)
peptide: XCTKSDPPICN
HELM: PEPTIDE1{[Nc1ccc(C[C@H](N[*:1])C(=O)[*:2])cc1].C.T.K.S.D.P.P.I.C.N.[dP].P}$PEPTIDE1,PEPTIDE1,2:R3-10:R3|PEPTIDE1,PEPTIDE1,1:R1-13:R2$$$V2.0
SMILES: CC[C@H](C)[C@@H]1NC(=O)[C@@H]2CCCN2C(=O)[C@@H]2CCCN2C(=O)[C@H](CC(=O)O)NC(=O)[C@H](CO)NC(=O)[C@H](CCCCN)NC(=O)[C@H]([C@@H](C)O)NC(=O)[C@@H]2CSSC[C@H](NC1=O)C(=O)N[C@@H](CC(N)=O)C(=O)N1CCC[C@@H]1C(=O)N1CCC[C@H]1C(=O)N[C@@H](Cc1ccc(N)cc1)C(=O)N2
Turning to B2, the “% inhibition at 100 µM” value came out at 15% in [1]; 15% in assay [2]; 10% in assay [3]; 76% in [5]; 12% with Chymase, from human skin; 98% in assay [6]. Moreover, the “% inhibition at 100 µM” value in assay [8] turned out to be 8%. Besides, the IC50 in [4] is above 100000 nmol; in [7] it was 34 nmol.

B3: Example 3 (peptide)
peptide: FCTKSDPPICN
HELM: PEPTIDE1{F.C.T.K.S.D.P.P.I.C.N.[dP].P}$PEPTIDE1,PEPTIDE1,2:R3-10:R3|PEPTIDE1,PEPTIDE1,1:R1-13:R2$$$V2.0
SMILES: CC[C@H](C)[C@@H]1NC(=O)[C@@H]2CCCN2C(=O)[C@@H]2CCCN2C(=O)[C@H](CC(=O)O)NC(=O)[C@H](CO)NC(=O)[C@H](CCCCN)NC(=O)[C@H]([C@@H](C)O)NC(=O)[C@@H]2CSSC[C@H](NC1=O)C(=O)N[C@@H](CC(N)=O)C(=O)N1CCC[C@@H]1C(=O)N1CCC[C@H]1C(=O)N[C@@H](Cc1ccccc1)C(=O)N2
With B3, the “% inhibition at 100 µM” value in assay [1] came to 0%; in assay [2], 4%; in assay [3], 0%; in assay [5] it was 68%; in the assay with Chymase, from human skin it was 1%; in assay [6] it was 92%. Moreover, the “% inhibition at 100 µM” value in [8] worked out at 4%. Moreover, the values for the IC50 in assay [4] and in assay [7] were above 100000 nmol and 51 nmol, respectively.

B4: Example 38 (peptide)
peptide: XCTKSDPPICT
HELM: PEPTIDE1{[O=C([C@@H](N[*:1])C1CCCCC1)[*:2]].C.T.K.S.D.P.P.I.C.T.[dP].P}$PEPTIDE1,PEPTIDE1,2:R3-10:R3|PEPTIDE1,PEPTIDE1,1:R1-13:R2$$$V2.0
SMILES: CC[C@H](C)[C@@H]1NC(=O)[C@@H]2CCCN2C(=O)[C@@H]2CCCN2C(=O)[C@H](CC(=O)O)NC(=O)[C@H](CO)NC(=O)[C@H](CCCCN)NC(=O)[C@H]([C@@H](C)O)NC(=O)[C@@H]2CSSC[C@H](NC1=O)C(=O)N[C@@H]([C@@H](C)O)C(=O)N1CCC[C@@H]1C(=O)N1CCC[C@H]1C(=O)N[C@@H](C1CCCCC1)C(=O)N2
Turning to B4, the “% inhibition at 100 µM” value turned out to be 4% in [1]; 1% in assay [2]; 0% in assay [3]; 11% in [5]; 1% with Chymase, from human skin; 96% in assay [6]. Moreover, the “% inhibition at 100 µM” value in assay [8] came out at 0%. Further, the IC50 is above 100000 nmol in [4] and 31 nmol in assay [7].

B5: Example 1 (peptide)
peptide: FCTKSEPPICT
HELM: PEPTIDE1{F.C.T.K.S.E.P.P.I.C.T.[dP].P}$PEPTIDE1,PEPTIDE1,2:R3-10:R3|PEPTIDE1,PEPTIDE1,1:R1-13:R2$$$V2.0
SMILES: CC[C@H](C)[C@@H]1NC(=O)[C@@H]2CCCN2C(=O)[C@@H]2CCCN2C(=O)[C@H](CCC(=O)O)NC(=O)[C@H](CO)NC(=O)[C@H](CCCCN)NC(=O)[C@H]([C@@H](C)O)NC(=O)[C@@H]2CSSC[C@H](NC1=O)C(=O)N[C@@H]([C@@H](C)O)C(=O)N1CCC[C@@H]1C(=O)N1CCC[C@H]1C(=O)N[C@@H](Cc1ccccc1)C(=O)N2
B5: the “% inhibition at 100 µM” value in assay [1] turned out to be 7.8%; in assay [2], 5.7%; in assay [3], 1.1%; in assay [5] it was 0%; with Chymase, from human skin, 0%; in assay [6], 92.6%. For the same molecule, in [8], the “% inhibition at 100 µM” value worked out at 5.7%. The IC50 in assay [4] is above 100000 nmol; in assay [7], 86 nmol.

B6: Example 2 (peptide)
peptide: FCTKSDPPICD
HELM: PEPTIDE1{F.C.T.K.S.D.P.P.I.C.D.[dP].P}$PEPTIDE1,PEPTIDE1,2:R3-10:R3|PEPTIDE1,PEPTIDE1,1:R1-13:R2$$$V2.0
SMILES: CC[C@H](C)[C@@H]1NC(=O)[C@@H]2CCCN2C(=O)[C@@H]2CCCN2C(=O)[C@H](CC(=O)O)NC(=O)[C@H](CO)NC(=O)[C@H](CCCCN)NC(=O)[C@H]([C@@H](C)O)NC(=O)[C@@H]2CSSC[C@H](NC1=O)C(=O)N[C@@H](CC(=O)O)C(=O)N1CCC[C@@H]1C(=O)N1CCC[C@H]1C(=O)N[C@@H](Cc1ccccc1)C(=O)N2
With B6, the “% inhibition at 100 µM” value was found to be 2.9% in [1]; 0.9% in [2]; 9.2% in assay [3]; 39.6% in assay [5]; 0% with Chymase, from human skin; 92% in [6]. Besides, the “% inhibition at 100 µM” value in assay [8] was found to be 5.3%. The IC50 in assay [4] was above 100000 nmol; in assay [7], 84 nmol.

B7: Example 24 (peptide)
peptide: cyclo(FCTK[AlloThr]DPPICS[dP]P)
modifications: disulfide 2-10
As for B7, the “% inhibition at 100 µM” value in [1] amounted to 1%; in [2] it was 5.1%; in [3], 3.5%; in assay [5] it was 0%; with Chymase, from human skin, 1.2%; in assay [6], 97%. In addition, the “% inhibition at 100 µM” value in assay [8] came out at 30%. Further, the IC50 is above 100000 nmol in assay [4] and 71 nmol in assay [7].

B8: Example 28 (peptide)
peptide: XCTKSDPPICT
HELM: PEPTIDE1{[O=C([C@H](CCc1ccccc1)N[*:1])[*:2]].C.T.K.S.D.P.P.I.C.T.[dP].P}$PEPTIDE1,PEPTIDE1,2:R3-10:R3|PEPTIDE1,PEPTIDE1,1:R1-13:R2$$$V2.0
SMILES: CC[C@H](C)[C@@H]1NC(=O)[C@@H]2CCCN2C(=O)[C@@H]2CCCN2C(=O)[C@H](CC(=O)O)NC(=O)[C@H](CO)NC(=O)[C@H](CCCCN)NC(=O)[C@H]([C@@H](C)O)NC(=O)[C@@H]2CSSC[C@H](NC1=O)C(=O)N[C@@H]([C@@H](C)O)C(=O)N1CCC[C@@H]1C(=O)N1CCC[C@H]1C(=O)N[C@@H](CCc1ccccc1)C(=O)N2
For B8, the “% inhibition at 100 µM” value in [1] was determined as 32%; in [2], 1%; in assay [3], 12%; in assay [5], 0%; with Chymase, from human skin, 0%; in assay [6], 95%. In [8], the “% inhibition at 100 µM” value came out at 6%. The IC50 in assay [4] is above 100000 nmol; in assay [7], 39 nmol.
